In IntAct's records for PubMed 21889351:

B1: Programmed cell death 6-interacting protein (Homo sapiens), Q8WUM4 (parent)
chain: MATFISVQLKKTSEVDLAKPLVKFIQQTYPSGGEEQAQYCRAAEELSKLRRAAVGRPLDKHEGALETLLRYYDQICSIEPKFPFSENQICLTFTWKDAFDKGSLFGGSVKLALASLGYEKSCVLFNCAALASQIAAEQNLDNDEGLKIAAKHYQFASGAFLHIKETVLSALSREPTVDISPDTVGTLSLIMLAQAQEVFFLKATRDKMKDAIIAKLANQAADYFGDAFKQCQYKDTLPKEVFPVLAAKHCIMQANAEYHQSILAKQQKKFGEEIARLQHAAELIKTVASRYDEYVNVKDFSDKINRALAAAKKDNDFIYHDRVPDLKDLDPIGKATLVKSTPVNVPISQKFTDLFEKMVPVSVQQSLAAYNQRKADLVNRSIAQMREATTLANGVLASLNLPAAIEDVSGDTVPQSILTKSRSVIEQGGIQTVDQLIKELPELLQRNREILDESLRLLDEEEATDNDLRAKFKERWQRTPSNELYKPLRAEGTNFRTVLDKAVQADGQVKECYQSHRDTIVLLCKPEPELNAAIPSANPAKTMQGSEVVNVLKSLLSNLDEVKKEREGLENDLKSVNFDMTSKFLTALAQDGVINEEALSVTELDRVYGGLTTKVQESLKKQEGLLKNIQVSHQEFSKMKQSNNEANLREEVLKNLATAYDNFVELVANLKEGTKFYNELTEILVRFQNKCSDIVFARKTERDELLKDLQQSIAREPSAPSIPTPAYQSSPAGGHAPTPPTPAPRTMPPTKPQPPARPPPPVLPANRAPSATAPSPVGAGTAAPAPSQTPGSAPPPQAQGPPYPTYPGYPGYCQMPMPMGYNPYAYGQYNMPYPPVYHQSPGQAPYPGPQQPSYPFPQPPQQSYYPQQ
partner: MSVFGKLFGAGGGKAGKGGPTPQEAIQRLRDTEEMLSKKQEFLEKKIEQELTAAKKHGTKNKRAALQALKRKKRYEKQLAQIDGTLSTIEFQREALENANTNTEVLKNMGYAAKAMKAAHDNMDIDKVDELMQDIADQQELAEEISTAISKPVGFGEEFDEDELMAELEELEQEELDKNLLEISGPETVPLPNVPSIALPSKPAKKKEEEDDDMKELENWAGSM

Variants of: B1
Conditions: with chm4b_human CHMP4B

| Variant | effect of a mutation on the interaction |
| --- | --- |
| I212D | disrupting interaction |
